In patent US20250262153A1:

Molecular target: PD-1 protein on the surface of Jurkat PD-1 NFAT line cells (UniProt Q15116)
Assay: cell-based or functional assay

UniProt Q15116, sequence (Q15116 25-288 limits assumed): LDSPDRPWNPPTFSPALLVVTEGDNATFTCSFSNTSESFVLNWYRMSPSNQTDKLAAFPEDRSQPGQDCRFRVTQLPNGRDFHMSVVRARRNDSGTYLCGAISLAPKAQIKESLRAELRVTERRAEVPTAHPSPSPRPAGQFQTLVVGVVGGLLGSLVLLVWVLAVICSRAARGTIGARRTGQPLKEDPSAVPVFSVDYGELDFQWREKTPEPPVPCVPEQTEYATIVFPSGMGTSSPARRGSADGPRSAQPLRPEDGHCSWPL

B1: prolgolimab (antibody, from a related filing, V domains shown)
VH: QVQLVQSGGGLVQPGGSLRLSCAASGFTFSSYWMYWVRQVPGKGLEWVSAIDTGGGRTYYADSVKGRFAISRVNAKNTMYLQMNSLRAEDTAVYYCARDEGGGTGWGVLKDWPYGLDAWGQGTLVTVSS
VL: QPVLTQPLSVSVALGQTARITCGGNNIGSKNVHWYQQKPGQAPVLVIYRDSNRPSGIPERFSGSNSGNTATLTISRAQAGDEADYYCQVWDSSTAVFGTGTKLTVLQ
Binder B1 has a Relative specific activity, % (ED50 standard / ED50 test, Jurkat PD-1 NFAT luminescence); 20 mg/ml, histidine, trehalose 100 mg/ml, 37 C, initial control of 105%, a Relative specific activity, %; 20 mg/ml, acetate pH 5.0, trehalose 80 mg/ml, 37 C, 2 weeks of 103% and a Relative specific activity, %; 20 mg/ml, acetate pH 5.0, trehalose 80 mg/ml, 37 C, 4 weeks of 94%. The Relative specific activity, %; 20 mg/ml, acetate pH 5.0, trehalose 80 mg/ml, 37 C, initial control was 100%, the Relative specific activity, %; 20 mg/ml, acetate pH 5.0, trehalose 100 mg/ml, 37 C, 2 weeks was 93% and the Relative specific activity, %; 20 mg/ml, acetate pH 5.0, trehalose 100 mg/ml, 37 C, 4 weeks was 99%. It also gave a Relative specific activity, %; 20 mg/ml, acetate pH 5.0, trehalose 100 mg/ml, 37 C, initial control of 89%, a Relative specific activity, %; 20 mg/ml, histidine, trehalose 80 mg/ml, 37 C, 2 weeks of 103% and a Relative specific activity, %; 20 mg/ml, histidine, trehalose 80 mg/ml, 37 C, 4 weeks of 94%. For the same binder, the Relative specific activity, %; 20 mg/ml, histidine, trehalose 80 mg/ml, 37 C, initial control was 100%, the Relative specific activity, %; 20 mg/ml, histidine, trehalose 100 mg/ml, 37 C, 2 weeks was 97% and the Relative specific activity, %; 20 mg/ml, histidine, trehalose 100 mg/ml, 37 C, 4 weeks was 110%. The Relative specific activity, %; 100 mg/ml, acetate pH 5.0, trehalose 80 mg/ml, 37 C, 2 weeks was 94%, the Relative specific activity, %; 100 mg/ml, acetate pH 5.0, trehalose 80 mg/ml, 37 C, 4 weeks was 105% and the Relative specific activity, %; 100 mg/ml, acetate pH 5.0, trehalose 80 mg/ml, 37 C, initial control was 89%. The Relative specific activity, %; 100 mg/ml, acetate pH 5.0, trehalose 100 mg/ml, 37 C, 2 weeks was 112%, the Relative specific activity, %; 100 mg/ml, acetate pH 5.0, trehalose 100 mg/ml, 37 C, 4 weeks was 97% and the Relative specific activity, %; 100 mg/ml, acetate pH 5.0, trehalose 100 mg/ml, 37 C, initial control was 107%. The Relative specific activity, %; 100 mg/ml, histidine, trehalose 80 mg/ml, 37 C, 2 weeks was 94%, the Relative specific activity, %; 100 mg/ml, histidine, trehalose 80 mg/ml, 37 C, 4 weeks was 105% and the Relative specific activity, %; 100 mg/ml, histidine, trehalose 80 mg/ml, 37 C, initial control was 89%. It also gave a Relative specific activity, %; 100 mg/ml, histidine, trehalose 100 mg/ml, 37 C, 2 weeks of 104%, a Relative specific activity, %; 100 mg/ml, histidine, trehalose 100 mg/ml, 37 C, 4 weeks of 97% and a Relative specific activity, %; 100 mg/ml, histidine, trehalose 100 mg/ml, 37 C, initial control of 101%. The Relative specific activity, %; 150 mg/ml, acetate pH 5.0, trehalose 80 mg/ml, 37 C, 2 weeks was 99%, the Relative specific activity, %; 150 mg/ml, acetate pH 5.0, trehalose 80 mg/ml, 37 C, 4 weeks was 108% and the Relative specific activity, %; 150 mg/ml, acetate pH 5.0, trehalose 80 mg/ml, 37 C, initial control was 91%. The Relative specific activity, %; 150 mg/ml, acetate pH 5.0, trehalose 100 mg/ml, 37 C, 2 weeks was 106%, the Relative specific activity, %; 150 mg/ml, acetate pH 5.0, trehalose 100 mg/ml, 37 C, 4 weeks was 103% and the Relative specific activity, %; 150 mg/ml, acetate pH 5.0, trehalose 100 mg/ml, 37 C, initial control was 92%. The Relative specific activity, %; 150 mg/ml, histidine, trehalose 80 mg/ml, 37 C, 2 weeks was 99%, the Relative specific activity, %; 150 mg/ml, histidine, trehalose 80 mg/ml, 37 C, 4 weeks was 108% and the Relative specific activity, %; 150 mg/ml, histidine, trehalose 80 mg/ml, 37 C, initial control was 91%. The Relative specific activity, %; 150 mg/ml, histidine, trehalose 100 mg/ml, 37 C, 2 weeks was 100%, the Relative specific activity, %; 150 mg/ml, histidine, trehalose 100 mg/ml, 37 C, 4 weeks was 105% and the Relative specific activity, %; 150 mg/ml, histidine, trehalose 100 mg/ml, 37 C, initial control was 97%.
